{"source": "the nanobody polyreactivity screen of Harvey et al. (2022)", "data": [{"test": "yeast display, Sf9 membrane polyspecificity reagent, FACS + sequencing; frameworks hold sequencing errors", "in_short": "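After 36–48 hours of galactose induction, yeast (Saccharomyces cerevisiae BJ5465) displaying a synthetic nanobody library were stained at 4 °C for 1 hour with 10% biotinylated, detergent-solubilized Sf9 membrane reagent. Streptavidin microbeads enriched the stained cells before FACS sorting into low and high (top ~1%) gates on anti-HA and streptavidin fluorescence. Each clone's polyreactivity label reflects its gate of origin.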", "values": [{"sequence": "QVQLEESGGGLVQAGDSLRLSCDASGSTFPGYAMGWYRPAPGKERELVAAIYKRGGSTRYADSVKGRFTISRDNAKNTVYLQMNSLKPEDTAVYYCAASYSYSGSGGGYWGQGTQVTVSS", "polyreactivity (PSR sort gate)": "high polyreactivity"}, {"sequence": "QVQLVESGGGLFQAGGSLRLSCAASGFIFRYYAMGWYRQAPGKERELVAAITRGGSTYYADSVKGRFTISRDNAKNTVYLQMNSLKPEDTAVYDCAARLYTQYYYWGQCTQVTVSS", "polyreactivity (PSR sort gate)": "high polyreactivity"}, {"sequence": "QVQLVESGGGLVQAGGSLRLSCAASGSTLGVNAMGWYRQAPGKEREFVSSITGRVGNTYYADSVKGRFTISRDNAKNTVYLQMNSLKPEDTAVYYCAARVKYTRYQSILDYYYWGQGTQVTVSS", "polyreactivity (PSR sort gate)": "high polyreactivity"}, {"sequence": "QVQLVESGGGLVQAGGSLRISFAASGFFFARYAMGWYRQEPGKERELVAAISGSGARTYYADSVKGRFTNSRDNAKNTVYLQMNSLKPEDTAVYYCAVRGSWYSEHNYWGQGTQVTVSS", "polyreactivity (PSR sort gate)": "high polyreactivity"}, {"sequence": "QVQLVESGGGLVQAGGSLRLSCAASGFIFPPYAMGWYRQAPGKERELVAAIRISGGSTYYADSVKGRFTISRDNAKNTVYLQMNSLKPEDTAVYYCAARYVSSTPAYAYYYWGQGTQVTVSS", "polyreactivity (PSR sort gate)": "high polyreactivity"}, {"sequence": "QVQLVESGGGLVQAGGSLRLSCAASGRIFAWYTMGWYRQAPGKERELVAAISWNGGRTYYADSVKGRFTISRDNAKNTVYLQMNSLKPEDTAVYYCNADWYWRVYWGQGTQVTVSS", "polyreactivity (PSR sort gate)": "high polyreactivity"}, {"sequence": "QVQLVESGGGLVQAGGSLRLSCAASGITFRRYAMGWYRPAPGKERELVAVISVSGGRTHYADSVKGRFTISRDNAKNTVYLQMNSLKPEDTAVYYCAADFLRYPLGYWGQGTQVTVSS", "polyreactivity (PSR sort gate)": "high polyreactivity"}, {"sequence": "QVQLVESGGGLVQAGGSLRLSCAASGFIFYDYAMGWYRQATGKERELVAGITDSGGSTSYADSVKGRFTISRDNAKNTDYLQMNSLKPEDTAVYYCAADNYVRAGINYDYWGQGTQVTVSS", "polyreactivity (PSR sort gate)": "low polyreactivity"}, {"sequence": "QVQLVESGGGLVQAGGSLLLSCAASGSIFGWYAMGWYRQAPGKERELVAAISSSGDSTYYADSVKGRFTISRDNAKNTVYLQMNSLKPEDTAVYYCAAEYWPSSPSAPGFDYDHWGQGTQVTVSS", "polyreactivity (PSR sort gate)": "low polyreactivity"}, {"sequence": "QVQLVESGGGLVQAGGSLRLSCASSGFTFIYYAMGWYRQAPGKERELVAAISGSGSTYYADSVKGRFTISRDNAKNTVYLQMNSLKPEDTAVYYCAADVTGGRKYDYWGQGTQVTVSS", "polyreactivity (PSR sort gate)": "low polyreactivity"}, {"sequence": "QVQLVESGGGLVQARGSLRLSCAASGFIFGYYAKGWYRQAPGKERELVAAISPSGGRTYYADSVKGRFTISRDNAKNTVYLQMNILKPEDTAVYYCAAEYAYSLDPVEDYWGQGTLVTVSS", "polyreactivity (PSR sort gate)": "high polyreactivity"}, {"sequence": "QVQLVESGGRLVQAGGSLRLSCAASGRTSGINAMGWYRQAPGKERELVAAISSGGRTYYADSVKGRFTISRDNAKNTVYLQMNSLKPEDTAVYYCAAVIHWSLYRRMEYWGQGTQVTVSS", "polyreactivity (PSR sort gate)": "high polyreactivity"}, {"sequence": "QVQLVESGGGLVQAGGSLRLSSAASGSTFVTYAMGWYRQAPGKERELVAAISRRGGSTYYADSVKGRFTISRDNAKNTVYLQMNCLKPEDTAVYYCAPVQGSYSRDGADDYWGQGTQVTVSS", "polyreactivity (PSR sort gate)": "high polyreactivity"}, {"sequence": "QVHLVESGGGLVQAGGSLRLSCAASGRTFGWNVMGWYRQAPGKERELVAAISGSGGSTYYADSVKGRFTISRDNAKNTVYLQMNSLKPEVTAVYYCAALYGPGREYDYWGQGTQVTVSS", "polyreactivity (PSR sort gate)": "low polyreactivity"}, {"sequence": "QVQLVESGGALFQAGGSLRLSCAASGIIFGVYAMGWYRQAPVKERELVASITWGGGSTYYADSVKGRFTISRDNAKNTVYLQMNSLKPEDTAVYYCNKRGYPGYDWGQGTQVTVSS", "polyreactivity (PSR sort gate)": "low polyreactivity"}, {"sequence": "QVQLVESGGGLVQAGGSLRLSCAASGRTFYYYAMGWYRQAPGKEMELGAAIRRSGSSTYYADSVKGRFTISRDNAKNTVYLQMNSLKPEDTAVYYCAAAVYQRARYYWGQGTQVTVSS", "polyreactivity (PSR sort gate)": "high polyreactivity"}, {"sequence": "QVQLVESGGGLVQAGGSLRLSCDASGRIFHGNAMGWYRQAPGKEREFVAAITYGGGSTYYADSVKGRFTISRDNAKNTVYLQMNSLKPEDTAVYYCNARGARSNGVRGYYSKLNYWGQGTQVTVSS", "polyreactivity (PSR sort gate)": "high polyreactivity"}, {"sequence": "QVQLVESGGGLVQAGGSLRLSCAASGSIFPFNAMGCYRQAPGKERELVAAISYSGGSTYYADSVKGRFTISRDNAKNTVYLQMTRLKPEDTAVYYCNRLLRRHLYIFYYWGQGTLVTVSS", "polyreactivity (PSR sort gate)": "high polyreactivity"}, {"sequence": "QVQLVESGGGLVQAGGSLRLSCAASGNIFDGNSMGWYRQAPGKERELVAAITGRGGGTYYADSVKGRFTISRDNAKNTVYLQMNSLKPEDTAVYYCAAPWVVRRTAYDYWGQGTQVTVSS", "polyreactivity (PSR sort gate)": "high polyreactivity"}, {"sequence": "QVQLVESGGGLVQAGGSLRLTCAASGYTFYPYAMGWYRQAPGKERELVAAISWSGGSTYYADSVKGRFTISRDNAKNTVYLQMNSLKPEDTAVYYCNADSGWFGYDYWGKGTQVTVSS", "polyreactivity (PSR sort gate)": "low polyreactivity"}, {"sequence": "QVQLVESGGGLVQAGGSLRLSCAASGLIFIQYAMGWYRQAPGKEREFVAAISWSGTSTHYADSVKGRFTISRDNAKNTVYFQMNSLKPEDTAVYYCAAAKTGRGRGTTGYGYWGQGTLVTVSS", "polyreactivity (PSR sort gate)": "high polyreactivity"}, {"sequence": "QVQLVESGGGLVQAGGSLRLSCAASGFTFRRYAMGGYRQAPGKERELVAAISANGGSTYYADSVKGRFTISRDNAKNTVYLQMNSLKPEDTAVYYCNARKYTQSIHYDYWGQGTQVTVSS", "polyreactivity (PSR sort gate)": "high polyreactivity"}]}]}
